A short description of series [1]: western blot of HDAC5 protein, mBMSCs. The settings on record: glycan lost; control: DMSO.
A short description of series [2]: HDAC5 protein level in bone tissue. The note with it: glycan lost; control: Ogtfl/fl mice.

B1: HDAC5: OSMI-1 (protein)
parent chain: MNSPNESDGMSGREPSLGILPRTPLHSIPVAVEVKPVLPGAMPSSMGGGGGGSPSPVELRGALAGPMDPALREQQLQQELLVLKQQQQLQKQLLFAEFQKQHDHLTRQHEVQLQKHLKQQQEMLAAKRQQELEQQRQREQQRQEELEKQRLEQQLLILRNKEKSKESAIASTEVKLRLQEFLLSKSKEPTPGGLNHSLPQHPKCWGAHHASLDQSSPPQSGPPGTPPSYKLPLLGPYDSRDDFPLRKTASEPNLKVRSRLKQKVAERRSSPLLRRKDGTVISTFKKRAVEITGTGPGVSSVCNSAPGSGPSSPNSSHSTIAENGFTGSVPNIPTEMIPQHRALPLDSSPNQFSLYTSPSLPNISLGLQATVTVTNSHLTASPKLSTQQEAERQALQSLRQGGTLTGKFMSTSSIPGCLLGVALEGDTSPHGHASLLQHVCSWTGRQQSTLIAVPLHGQSPLVTGERVATSMRTVGKLPRHRPLSRTQSSPLPQSPQALQQLVMQQQHQQFLEKQKQQQMQLGKILTKTGELSRQPTTHPEETEEELTEQQEALLGEGALTIPREGSTESESTQEDLEEEEEEEEEEEEDCIQVKDEDGESGPDEGPDLEESSAGYKKLFADAQQLQPLQVYQAPLSLATVPHQALGRTQSSPAAPGSMKSPTDQPTVVKHLFTTGVVYDTFMLKHQCMCGNTHVHPEHAGRIQSIWSRLQETGLLGKCERIRGRKATLDEIQTVHSEYHTLLYGTSPLNRQKLDSKKLLGPISQKMYAMLPCGGIGVDSDTVWNEMHSSSAVRMAVGCLVELAFKVAAGELKNGFAIIRPPGHHAEESTAMGFCFFNSVAITAKLLQQKLSVGKVLIVDWDIHHGNGTQQAFYNDPSVLYISLHRYDNGNFFPGSGAPEEVGGGPGVGYNVNVAWTGGVDPPIGDVEYLTAFRTVVMPIAQEFSPDVVLVSAGFDAVEGHLSPLGGYSVTARCFGHLTRQLMTLAGGRVVLALEGGHDLTAICDASEACVSALLSVELQPLDEAVLQQKPSVNAVATLEKVIEIQSKHWSCVQRFAAGLGCSLREAQTGEKEEAETVSAMALLSVGAEQAQAVATQEHSPRPAEEPMEQEPAL
For the protein B1, the expression_or_secretion entry in series [1] is on record as “increases”.

B2: HDAC5: Ogtfl/fl; Bglap-Cre (Ogt cKO) (protein)
parent chain: B1 parent chain
As for B2, the expression_or_secretion result in series [2] is listed as “increases”.

Values taken from article PMC11626777.
